{"source": "the supplement of paper PMC9170038", "key": {"MS2 coat protein [1]": {"test_system": "MS2 coat protein", "assay": "apparent KD of MS2 coat protein, switch ON state; designed switch direction (-1 OFF switch, 1 ON switch): 1; higher = weaker reporter binding", "conditions": "FMN input: 0 or 200 uM; Eterna round: R93 (includes R88 designs)", "summary_of_the_method": "(§1)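 Designed RNA switches were transcribed on-chip from Illumina sequencing clusters. They were then titrated with SNAP-549-labelled MS2 coat protein (twofold steps, 0.7 or 1.5 nM to 3 µM; 0.8–1.5 h to 10–20 min per step) in 100 mM Tris-HCl pH 7.5, 80 mM KCl, 4 mM MgCl2, without or with constant ligand. Apparent KD is the per-design median of normalised cluster binding-curve fits.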"}, "MS2 coat protein [2]": {"test_system": "MS2 coat protein", "assay": "apparent KD of MS2 coat protein, switch OFF state (with FMN for OFF switches, without FMN for ON switches); designed switch direction (-1 OFF switch, 1 ON switch): 1; higher = weaker reporter binding", "conditions": "FMN input: 0 or 200 uM; Eterna round: R93 (includes R88 designs)", "summary_of_the_method": "as §1"}}}
{"sequence": "AAAAAAAAAACUCAGGAUAUAGAUAAUUGAACAUGAGGAUCACCCAUGUAGUGAAAAAAAAAAAAUUAGAAGGGAGGAAAAAAAAA [SameState2-01]", "values": [{"measurement": "apparent KD of MS2 coat protein", "setting": "MS2 coat protein [1]", "result": 52.9, "unit": "nM"}, {"measurement": "apparent KD of MS2 coat protein", "setting": "MS2 coat protein [2]", "result": 45.4, "unit": "nM"}]}
{"sequence": "AAAAAAAAAAGACAGGAUAUCCAAAAGAAAACAUGAGGAUCACCCAUGUAAAAGAAAAUAAAAUGGGAGAAGGGUCAAAAUAAAG [Mat - Same State 2 - JL mod - D74]", "values": [{"measurement": "apparent KD of MS2 coat protein", "setting": "MS2 coat protein [1]", "result": 9.39, "unit": "nM"}, {"measurement": "apparent KD of MS2 coat protein", "setting": "MS2 coat protein [2]", "result": 58.2, "unit": "nM"}]}
{"sequence": "AAAAAAAAAAGGCAGGAUAUCCAAAAAAAAACAUGAGGAUCACCCAUGUAAAAAAAAAAAAAAUGGGAGAAGGGCCAAAAAAAAA [Mat - Same State 2 - Rerun Eli mod - D85]", "values": [{"measurement": "apparent KD of MS2 coat protein", "setting": "MS2 coat protein [1]", "result": 63.1, "unit": "nM"}, {"measurement": "apparent KD of MS2 coat protein", "setting": "MS2 coat protein [2]", "result": 64.4, "unit": "nM"}]}
{"sequence": "AAAAAAAAUGUGUAGGAUAUCAGUAAAAAUACAUGAGGAUCACCCAUGUUCAAAAAAAAAAAAACUGAGAAGGACACGGGAAGUCC [Design 2]", "values": [{"measurement": "apparent KD of MS2 coat protein", "setting": "MS2 coat protein [1]", "result": 20.5, "unit": "nM"}, {"measurement": "apparent KD of MS2 coat protein", "setting": "MS2 coat protein [2]", "result": 18.5, "unit": "nM"}]}
{"sequence": "AAAAAACAUGAGGAUCACCCAUGUAAAAAAAACACAGGAUAUCCCUUUUAAAAAAAAAAAGGAGAAGGGUGAAAAA [Nob's Hobby 5 - Jieux - Same State 1]", "values": [{"measurement": "apparent KD of MS2 coat protein", "setting": "MS2 coat protein [1]", "result": 16.1, "unit": "nM"}, {"measurement": "apparent KD of MS2 coat protein", "setting": "MS2 coat protein [2]", "result": 29.9, "unit": "nM"}]}
{"sequence": "AAAAAACAUGAGGAUCACCCAUGUAAAAAAAAUGGAGGAUAUUGGAAAAAAAAAAAAAAACGAGAAGGCUAAAAAA [quick and simple]", "values": [{"measurement": "apparent KD of MS2 coat protein", "setting": "MS2 coat protein [1]", "result": 44.4, "unit": "nM"}, {"measurement": "apparent KD of MS2 coat protein", "setting": "MS2 coat protein [2]", "result": 50.4, "unit": "nM"}]}
{"sequence": "AAAAAACAUGAGGAUCACCCAUGUAAAAAAAUCGCAGGAUAUAGGGUCGCGAAAGCGACCCUAGAAGGGCGAUCCU [Louisiana 2 - Jieux - Same State 1]", "values": [{"measurement": "apparent KD of MS2 coat protein", "setting": "MS2 coat protein [1]", "result": 52, "unit": "nM"}, {"measurement": "apparent KD of MS2 coat protein", "setting": "MS2 coat protein [2]", "result": 76.1, "unit": "nM"}]}
{"sequence": "AAAAAACAUGAGGAUCACCCAUGUAAAAAAAUGGGAGGAUAUACAAAAACGAAAAAAAAAGUAGAAGGCCUGAAAA [same state 8]", "values": [{"measurement": "apparent KD of MS2 coat protein", "setting": "MS2 coat protein [1]", "result": 57.4, "unit": "nM"}, {"measurement": "apparent KD of MS2 coat protein", "setting": "MS2 coat protein [2]", "result": 162, "unit": "nM"}]}
{"sequence": "AAAAAACAUGAGGAUCACCCAUGUAAAAAAAUGGGAGGAUAUACAAAGACGAAAGUCAAAGUAGAAGGCCUGAAAG [same state 3]", "values": [{"measurement": "apparent KD of MS2 coat protein", "setting": "MS2 coat protein [1]", "result": 21.7, "unit": "nM"}, {"measurement": "apparent KD of MS2 coat protein", "setting": "MS2 coat protein [2]", "result": 58.4, "unit": "nM"}]}
{"sequence": "AAAAAACAUGAGGAUCACCCAUGUAAAAAUAUGGAAGGAUAUGGAAACACGAAAGUGAAACCAGAAGGUCUAAAAG [77%, Mat - Mod of Eli, 10]", "values": [{"measurement": "apparent KD of MS2 coat protein", "setting": "MS2 coat protein [1]", "result": 17.1, "unit": "nM"}, {"measurement": "apparent KD of MS2 coat protein", "setting": "MS2 coat protein [2]", "result": 21.3, "unit": "nM"}]}
{"sequence": "AAAAAACAUGAGGAUCACCCAUGUAAACCUCAUGUAGGAUAUACAAAAAAAAAAAAAAAAGUAGAAGGACAAAAAA [Omei A variation 2]", "values": [{"measurement": "apparent KD of MS2 coat protein", "setting": "MS2 coat protein [1]", "result": 4790, "unit": "nM"}, {"measurement": "apparent KD of MS2 coat protein", "setting": "MS2 coat protein [2]", "result": 1970, "unit": "nM"}]}
{"sequence": "AAAAAACAUGAGGAUCACCCAUGUCUUUUGACAUGAGGAUAUGUACAGACUUCGGUCUGUACAGAAGGCAUGAAAA [SS1 - 1029]", "values": [{"measurement": "apparent KD of MS2 coat protein", "setting": "MS2 coat protein [1]", "result": 48.4, "unit": "nM"}, {"measurement": "apparent KD of MS2 coat protein", "setting": "MS2 coat protein [2]", "result": 432, "unit": "nM"}]}
{"sequence": "AAAAAACAUGAGGAUCACCCAUGUGACAACAUGGGAGGAUAUACGAAGACGAGAGUCGAAGUAGAAGGCCUAAAAA [Garnet 76]", "values": [{"measurement": "apparent KD of MS2 coat protein", "setting": "MS2 coat protein [1]", "result": 98.5, "unit": "nM"}, {"measurement": "apparent KD of MS2 coat protein", "setting": "MS2 coat protein [2]", "result": 65.2, "unit": "nM"}]}
{"sequence": "AAAAAACAUGAGGAUCACCCAUGUGCAAAAUUCGCAGGAUAUCCCUUUUUUAAAUGGGAGGGAGAAGGGUGAAAAA [Nob's Hobby 17 - Jieux - Same State 1]", "values": [{"measurement": "apparent KD of MS2 coat protein", "setting": "MS2 coat protein [1]", "result": 23.7, "unit": "nM"}, {"measurement": "apparent KD of MS2 coat protein", "setting": "MS2 coat protein [2]", "result": 76, "unit": "nM"}]}
{"sequence": "AAAAAACAUGAGGAUCACCCAUGUGCAAAAUUCGCAGGAUAUUCCUCAAUUAAAUGAAAGGAAGAAGGGUGAUAAA [Nob's Hobby 31 - Jieux - Same State 1]", "values": [{"measurement": "apparent KD of MS2 coat protein", "setting": "MS2 coat protein [1]", "result": 79.7, "unit": "nM"}, {"measurement": "apparent KD of MS2 coat protein", "setting": "MS2 coat protein [2]", "result": 429, "unit": "nM"}]}
{"sequence": "AAAAAAUAAAAAAAGGAUAUCUGCAGUACGACAUGAGGAUCACCCAUGUGGUACUGCAGAUAUCAAAAGAAGGAAAAAUAAAAAA [SS2: MS2 52]", "values": [{"measurement": "apparent KD of MS2 coat protein", "setting": "MS2 coat protein [1]", "result": 13.6, "unit": "nM"}, {"measurement": "apparent KD of MS2 coat protein", "setting": "MS2 coat protein [2]", "result": 18.1, "unit": "nM"}]}
{"sequence": "AAAACACAUGAGGAUCACCCAUGUAAAAACAUGGGAGGAUAUGCAUGGAAAACAUGCUAUGCAGAAGGCUCAUGUG [SS1 - 6]", "values": [{"measurement": "apparent KD of MS2 coat protein", "setting": "MS2 coat protein [1]", "result": 14.9, "unit": "nM"}, {"measurement": "apparent KD of MS2 coat protein", "setting": "MS2 coat protein [2]", "result": 17.2, "unit": "nM"}]}
{"sequence": "AAAACUACAGAUCAGGAUAUGUUUGGGUAAACAUGAGGAUCACCCAUGUGCACCCGAUAAACAACACAGAAGGGAUAACGUGGGA [Soensole]", "values": [{"measurement": "apparent KD of MS2 coat protein", "setting": "MS2 coat protein [1]", "result": 12.7, "unit": "nM"}, {"measurement": "apparent KD of MS2 coat protein", "setting": "MS2 coat protein [2]", "result": 23.7, "unit": "nM"}]}
{"sequence": "AAAAGACAUGAGGAUCACCCAUGUAAAAACUUGAGAGGAUAUGCUUGAAAAACAUGCUAUGCAGAAGGCUCUAGUC [SS1 - 16]", "values": [{"measurement": "apparent KD of MS2 coat protein", "setting": "MS2 coat protein [1]", "result": 21.3, "unit": "nM"}, {"measurement": "apparent KD of MS2 coat protein", "setting": "MS2 coat protein [2]", "result": 28.2, "unit": "nM"}]}
